Test results from PMC9672452.

Assay: cell-surface N1, PE anti-Notch1 flow cytometry, CHO
Details: control: wild type

| Substance | expression_or_secretion (glycan gained) | expression_or_secretion (glycan lost) |
| --- | --- | --- |
| NOTCH1 (N1): N386T | no change | – |
| NOTCH1 (N1): T311P | – | decreases |
| NOTCH1 (N1): T349P | – | decreases |
